Assay results taken from patent US20220064325A1 (ALLIGATOR BIOSCIENCE, published 2022).

T1: human EpCAM expressed on cells (human, UniProt P16422 24-314)
T1 construct: whole, on cells; In the debris and exosome assays EpCAM stands on heat-shocked tumour cell debris or on exosomes; also called EpCAM on CHO-EpCAM, JEG, JAR, HT29, BxPC3, MCF7 and MB49-hEpCAM-OVA cells, their debris or exosomes
T1 sequence (looked up): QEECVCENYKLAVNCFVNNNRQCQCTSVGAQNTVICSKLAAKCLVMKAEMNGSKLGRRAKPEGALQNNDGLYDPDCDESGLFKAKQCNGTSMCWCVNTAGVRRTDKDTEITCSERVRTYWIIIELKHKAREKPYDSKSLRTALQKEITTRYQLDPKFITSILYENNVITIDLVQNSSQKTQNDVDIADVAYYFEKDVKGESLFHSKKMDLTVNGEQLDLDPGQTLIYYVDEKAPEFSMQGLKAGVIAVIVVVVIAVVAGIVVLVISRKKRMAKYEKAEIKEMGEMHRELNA

T2: dimeric antigen EpCAM-Fc (Sino hEpCAM_Fc #10694-H02H) (human, UniProt P16422 24-265)
T2 construct: not shown: Fc part
T2 sequence (looked up): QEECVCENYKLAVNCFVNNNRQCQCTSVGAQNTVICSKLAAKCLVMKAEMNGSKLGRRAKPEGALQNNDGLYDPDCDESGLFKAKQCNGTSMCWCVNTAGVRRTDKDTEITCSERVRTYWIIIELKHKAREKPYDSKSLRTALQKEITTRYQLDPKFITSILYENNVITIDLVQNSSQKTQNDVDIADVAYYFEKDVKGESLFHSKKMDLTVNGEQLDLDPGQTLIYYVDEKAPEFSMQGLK

T3: hEpCAM (R&D Systems #9277-EP), monomeric antigen EpCAM-his (human, UniProt P16422 24-265)
T3 construct: Bought reagent; also called human EpCAM; not shown: His tag
T3 sequence (looked up): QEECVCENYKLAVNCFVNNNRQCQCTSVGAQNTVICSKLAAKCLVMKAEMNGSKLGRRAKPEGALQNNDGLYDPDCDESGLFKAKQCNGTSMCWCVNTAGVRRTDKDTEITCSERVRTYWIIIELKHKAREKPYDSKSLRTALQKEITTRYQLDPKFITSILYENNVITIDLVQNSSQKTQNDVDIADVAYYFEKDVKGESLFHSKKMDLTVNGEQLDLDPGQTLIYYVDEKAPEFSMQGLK


Key:
[1] = target: T4, human CD40 expressed on cells (human, UniProt P25942 21-277); assay: flow cytometry, titration of biotinylated antibody on human PBMC gated with CD19, CD14, CD3 and CD56, detection with fluorochrome-conjugated streptavidin
T4 construct: whole, on cells; also called CD40 on primary human B cells, monocytes, monocyte-derived DCs, Raji cells and hCD40tg mouse DCs
T4 sequence (P25942 21-277): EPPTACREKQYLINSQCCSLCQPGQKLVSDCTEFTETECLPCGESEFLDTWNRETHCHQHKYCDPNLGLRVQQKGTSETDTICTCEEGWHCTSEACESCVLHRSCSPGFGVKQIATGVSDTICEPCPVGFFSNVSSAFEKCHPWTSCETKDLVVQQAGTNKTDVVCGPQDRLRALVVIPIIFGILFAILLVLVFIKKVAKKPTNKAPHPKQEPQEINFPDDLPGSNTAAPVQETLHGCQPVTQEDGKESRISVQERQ
Excerpt: FIG. 5. […] Binding of biotinylated antibodies to different cell populations was detected by flow cytometry using fluorochrome-conjugated streptavidin. Results are pooled from three donors in one representative experiment of two.
Binding of biotinylated antibodies was detected with fluorochrome-conjugated streptavidin and analysed using flow cytometry.

[2] = target: T1, human EpCAM expressed on cells; assay: flow cytometry, titration of biotinylated antibody on EpCAM-transfected CHO cells, detection with fluorochrome-conjugated streptavidin
Excerpt: FIG. 3. […] Binding of biotinylated antibodies was detected by flow cytometry using fluorochrome-conjugated streptavidin. Results are pooled from two replicates in one representative experiment of two.
The human EpCAM gene was cloned into pcDNA3.1, and the vector was subsequently stably transfected into CHO cells. Control CHO cells were stably transfected with and empty pcDNA3.1 vector. […] Binding of biotinylated antibodies was detected with fluorochrome-conjugated streptavidin and analysed using flow cytometry.

[3] = target: T2, dimeric antigen EpCAM-Fc (Sino …); assay: BLI (Octet RED96), Assay 1: bsAb on FAB2G sensors, dimeric EpCAM-Fc in solution, 1:1 fit
Description: (§1) Kinetic measurements were performed using the Octet RED96 platform (ForteBlo).
(§2) BsAb at 1.0 or 1.5 ug/ml where coupled to anti-human Fab-CH1 2nd generation (FAB2G) biosensors (Part no #18-5125 (tray)). Antigens were serially diluted % in 1× Kinetic buffer (ForteBio) to 100 nM, 50 nM, 25 nM, 12.5 nM, 6.25 nM, 3.125 nM, 1.56 nM or 0 nM. The association was followed for 300 seconds and the dissociation in 1× Kinetic buffer for 300 seconds. Sensor tips were regenerated using 10 mM glycine, pH 1.5. Data generated were referenced by subtracting a parallel buffer blank, the baseline was aligned with the y-axis, inter-step correlation by alignment against dissociation was performed and the data were smoothed by a Savitzky-Golay filter in the data analysis software (v.9.0.0.14). The processed data were fitted using a 1:1 Langmuir binding model with X2 as a measurement of fitting accuracy.

[4] = target: T3, hEpCAM (R&D Systems #9277-EP), …; assay: BLI (Octet RED96), Assay 2: bsAb on FAB2G sensors, monomeric EpCAM-his in solution, 1:1 fit
Description: as §1, §2

[5] = target: T2, dimeric antigen EpCAM-Fc (Sino …); assay: BLI (Octet RED96), Assay 3: hEpCAM_Fc coupled to AR2G sensors, bsAb in solution, 1:1 fit
Description: as §1
Antigen was coupled to Amine reactive Second generation sensors (Dip and Read Amine reactive Second-Generation (AR2G) Biosensors (Part no #18-5092 (tray)) at antigen concentrations of 0.4, 1.5, 0.25 or 0.5 μg/mL. BsAb (serially diluted % in 1× Kinetic buffer (ForteBio) with start concentrations of 20, 15, 10 or 25 nM) were analysed for binding to antigen-coupled sensors. The association was followed for 300 seconds and the dissociation in 1× Kinetic buffer for 300 seconds. Sensor tips were regenerated using 10 mM glycine, pH 2.2. Data generated were referenced by subtracting a parallel buffer blank, the baseline was aligned with the y-axis, inter-step correlation by alignment against dissociation was performed and the data were smoothed by a Savitzky-Golay filter in the data analysis software (v.9.0.0.14). The processed data were fitted using a 1:1 Langmuir binding model with X2 as a measurement of fitting accuracy.

[6] = target: T3, hEpCAM (R&D Systems #9277-EP), …; assay: Mono ELISA (top frame): plate coated with 0.5 µg/mL hEpCAM, detection with HRP-labelled goat anti-human kappa light chain, luminescence

Binder | binding result [1] | binding result [2] | Kd [3] | koff [3] | kon [3] | Kd [4] | koff [4] | kon [4] | Kd [5] | koff [5] | kon [5] | EC50 (read off the curve) [6]
1132.m2 (antibody, V domains shown, Full chains are not tied to this name; also called LALA-mutated agonistic monoclonal CD40 antibody) VH: EVQLLESGGGLVQPGGSLRLSCAASGFTFSSYAMSWVRQAPGKGLEWVSGIGSYGGGTYYADSVKGRFTISRDNSKNTLYLQMNSLRAEDTAVYYCARYVNFGMDYWGQGTLVTVSS VL: DIQMTQSPSSLSASVGDRVTITCRASQSISSYLNWYQQKPGKAPKLLIYAASSLQSGVPSRFSGSGSGTDFTLTISSLQPEDFATYYCQQYGRNPPTFGQGTKLEIK | binds | no binding (tested: about 300 nM) |  |  |  |  |  |  |  |  |  | 
1132-3174.M (bispecific antibody, V domains shown, also called CD40-EpCAM bispecific antibody in the Morrison format) VH 1: EVQLLESGGGLVQPGGSLRLSCAASGFTFSSYAMSWVRQAPGKGLEWVSGIGSYGGGTYYADSVKGRFTISRDNSKNTLYLQMNSLRAEDTAVYYCARYVNFGMDYWGQGTLVTVSS VL 1: DIQMTQSPSSLSASVGDRVTITCRASQSISSYLNWYQQKPGKAPKLLIYAASSLQSGVPSRFSGSGSGTDFTLTISSLQPEDFATYYCQQYGRNPPTFGQGTKLEIK VH 2: EVQLLEQSGAELVRPGTSVKISCKASGYAFTNYWLGWVKQRPGHGLEWIGDIFPGSGNIHYNEKFKGKATLTADKSSSTAYMQLSSLTFEDSAVYFCARLRNWDEPMDYWGQGTTVTVSS VL 2: ELVMTQSPSSLTVTAGEKVTMSCKSSQSLLNSGNQKNYLTWYQQKPGQPPKLLIYWASTRESGVPDRFTGSGSGTDFTLTISSVQAEDLAVYYCQNDYSYPLTFGAGTKLEIK |  |  | 0.5 nM | 8e-05 s⁻¹ | 200000 M⁻¹ s⁻¹ | 500 nM | 0.01 s⁻¹ | 20000 M⁻¹ s⁻¹ | 10 nM | 0.002 s⁻¹ | 200000 M⁻¹ s⁻¹ | 
1132-005025.M (bispecific antibody, also called CD40-EpCAM bispecific antibody in the Morrison format) VH: EVQLLESGGGLVQPGGSLRLSCAASGFTFSSYAMSWVRQAPGKGLEWVSGIGSYGGGTYYADSVKGRFTISRDNSKNTLYLQMNSLRAEDTAVYYCARYVNFGMDYWGQGTLVTVSS VL: DIQMTQSPSSLSASVGDRVTITCRASQSISSYLNWYQQKPGKAPKLLIYAASSLQSGVPSRFSGSGSGTDFTLTISSLQPEDFATYYCQQYGRNPPTFGQGTKLEIK scFv: not shown |  |  | 4 nM | 0.001 s⁻¹ | 300000 M⁻¹ s⁻¹ | 300 nM | 0.01 s⁻¹ | 30000 M⁻¹ s⁻¹ |  |  |  | ~0.5 nM
1132-3188.M (bispecific antibody, V domains shown, also called CD40-EpCAM bispecific antibody in the Morrison format; 3188 = 4D5MOCB = BM1) VH 1: EVQLLESGGGLVQPGGSLRLSCAASGFTFSSYAMSWVRQAPGKGLEWVSGIGSYGGGTYYADSVKGRFTISRDNSKNTLYLQMNSLRAEDTAVYYCARYVNFGMDYWGQGTLVTVSS VL 1: DIQMTQSPSSLSASVGDRVTITCRASQSISSYLNWYQQKPGKAPKLLIYAASSLQSGVPSRFSGSGSGTDFTLTISSLQPEDFATYYCQQYGRNPPTFGQGTKLEIK VH 2: EVQLVQSGPGLVQPGGSVRISCAASGYTFTNYGMNWVKQAPGKGLEWMGWINTYTGESTYADSFKGRFTFSLDTSASAAYLQINSLRAEDTAVYYCARFAIKGDYWGQGTLLTVSS VL 2: DIQMTQSPSSLSASVGDRVTITCRSTKSLLHSNGITYLYWYQQKPGKAPKLLIYQMSNLASGVPSRFSSSGSGTDFTLTISSLQPEDFATYYCAQNLEIPRTFGQGTKVELK |  |  | < 0.001 nM | < 1e-07 s⁻¹ | 300000 M⁻¹ s⁻¹ | 30 nM | 0.004 s⁻¹ | 100000 M⁻¹ s⁻¹ |  |  |  | ~0.4 nM
1132-005038.M (bispecific antibody, also called CD40-EpCAM bispecific antibody in the Morrison format) VH: EVQLLESGGGLVQPGGSLRLSCAASGFTFSSYAMSWVRQAPGKGLEWVSGIGSYGGGTYYADSVKGRFTISRDNSKNTLYLQMNSLRAEDTAVYYCARYVNFGMDYWGQGTLVTVSS VL: DIQMTQSPSSLSASVGDRVTITCRASQSISSYLNWYQQKPGKAPKLLIYAASSLQSGVPSRFSGSGSGTDFTLTISSLQPEDFATYYCQQYGRNPPTFGQGTKLEIK scFv: not shown |  |  | 6 nM | 0.002 s⁻¹ | 300000 M⁻¹ s⁻¹ | 1000 nM | 0.01 s⁻¹ | 8000 M⁻¹ s⁻¹ |  |  |  | ~1 nM
